The source of these data is patent US9364516B2, “Treatment of fibrosis-related disorders using fibronectin binding proteins and polypeptides” (priority 2010, dated 2016).

Assay [1] deals with human saphenous veins. Briefly: Ex vivo cultured human saphenous veins, intimal thickening. The conditions noted are these: 15 μM, 14 days culture in 10% FBS/M199. The protocol:
Saphenous veins were cut into 0.5 cm segments, and processed immediately (●) or cultured in 10% FBS/M199 containing 15 μM control III-11c peptide (▪) or pUR4 (▴) at 37° C. for 14 days. Veins were fixed, paraffin embedded, sectioned, and stained. Morphometric analysis was performed on six randomly chosen sections using Image-Pro Plus software. The intima/media ratio was determined by dividing intima area by media area. Paired student t-test was used to analyze the data. Data are expressed as mean±S.E.M. *p<0.05.
Human saphenous veins cultured in serum containing media develop intimal hyperplasia after 14 days in culture (Soyombo et al., “Intimal Proliferation in an Organ Culture of Human Saphenous Vein,” Am J Pathol. 137(6):1401-1410 (1990); Angelini et al., “Smooth Muscle Cell Proliferation in Response to Injury in an Organ Culture of Human Saphenous Vein,” Eur J Vasc Surg. 5(1):5-12 (1991); and Slomp et al., “Nature and Origin of the Neointima in Whole Vessel Wall Organ Culture of the Human Saphenous Vein,” Virchows Arch. 428(1):59-67 (1996), which are hereby incorporated by reference in their entirety). This system thus provides an ex vivo model system for studying mechanisms that lead to intimal hyperplasia that has distinct advantages over in vitro culture systems. […]

The test system of assay [2] is cell spreading or adhesion to collagen or fibronectin. The conditions noted are these: cited from earlier work.

B1: pUR4: 49-mer peptide derived from the bacterial F1 adhesin, His tagged, SEQ ID NO:1; class I fibronectin polymerization inhibitor (peptide)
chain: MRGSHHHHHHGSKDQSPLAGESGETEYITEVYGNQQNPVDIDKKLPNETGFSGNMVETEDTKLN
modifications: His tag; Bacterial adhesin derived peptide pUR4
In the case of B1, the intima/media ratio result in assay [1] is “decreases”. The “inhibition of cell spreading or adhesion to collagen or fibronectin” value in assay [2] is recorded as “does not inhibit”.
